Results taken from patent US9976167B2, “Group of glycosyltransferases and use thereof” (Shanghai Institutes For Biological Sciences, Chinese …, priority 2012, dated 2018).

B1: gGT29-4: glycosyltransferase protein with 446 amino acids, SEQ ID NO.: 55 (protein)
chain: MDNQKGRISIALLPFLAHGHISPFFELAKHLSKRNCNIFLCSTPINLSSIKNRISDKDSSASIKLVELHLPSSPDLPPHYHTTNGLPSHLMVPLRNAFETAAPTFSEILKTLNPDLLIYDFNPSWAPEIASSHNIPAVCFIIGGAASFSMSLHSFKNPGEKYPFLDFDDNSNITPEPPSADNMKLLLDFMTCFERSCDIILIKSFRELEGKYFDFYSTLSDKTLVPVGPLVQDPMGHNEDPKTEQFINWLDKRAESTVVFVCFGSEYFLSNEELEEVAIGLEISMVNFIWAVRLIEGEKKGVLPEGFVQRVGDRGLVVEGWAPQARILGHSSTGGFVSHCGWSSITESMKFGVPVIAMARHLDQPLNGKLAAEVGVGMEVVRDENGKYKREGIAEVIRKVVVEKSGEVMRRKARELSEKMKEKGEEEIDRAVEELVQICKKKKDEQ
modifications: Panax ginseng; gGT29-4
B2: gGT29-3: glycosyltransferase protein with 442 amino acids, SEQ ID NO.: 28 (protein)
chain: MDNQEGRISIALLPFLAHGHISPFFELAKQLAKRNCNVFLCSTPINLSSIKNKDSSASIKLVELHLPSSPDLPPHYHTTNGLPSHLMVPLINAFETAGPTFSEILKTLNPDLLIYDFNPSWAPEIASSHNIPAVYFLTTAAASSSIGLHAFKNPGEKYPFPDFYDNSNNTPEPPSADNMKLLHDFIACFERSCDIILIKSFIELEGKYIDLLSTLSDKTLVPVGPLVQDPMGHNEDPKTEQIINWLDKRAESTVVFVCFGSEYFLSNEELEEVAIGLEISMVNFIWAVRLIEGEKKGVLPEGFVQRVGDRGLVVEGWAPQARILGHSSTGGFVSHCGWSSIAESMKFGVPVIAMARHLDQPLNGKLAAEVGVGMEVVRDENGKYKREGIAEVIRKVVVEKSGEVMRRKARELSEKMKEKGEEEIDRAVEELVQICKKKKDAQ
modifications: Panax ginseng; gGT29-3
B3: gGT29: glycosyltransferase protein with 442 amino acids, SEQ ID NO.: 26 (protein)
chain: MDNQKGRISIALLPFLAHGHISPFFELAKQLAKRNCNVFLCSTPINLSSIKDKDSSASIKLVELHLPSSPDLPPHYHTTNGLPSHLMLPLRNAFETAGPTFSEILKTLNPDLLIYDFNPSWAPEIASSHNIPAVYFLTTAAASSSIGLHAFKNPGEKYPFPDFYDNSNITPEPPSADNMKLLHDFIACFERSCDIILIKSFRELEGKYIDLLSTLSDKTLVPVGPLVQDPMGHNEDPKTEQIINWLDKRAESTVVFVCFGSEYFLSNEELEEVAIGLEISTVNFIWAVRLIEGEKKGILPEGFVQRVGDRGLVVEGWAPQARILGHSSTGGFVSHCGWSSIAESMKFGVPVIAMARHLDQPLNGKLAAEVGVGMEVVRDENGKYKREGIAEVIRKVVVEKSGEVIRRKARELSEKMKEKGEQEIDRALEELVQICKKKKDEQ
modifications: Panax ginseng; gGT29
B4: 3GT4: glycosyltransferase protein with 458 amino acids, SEQ ID NO.: 43 (protein)
chain: MEREMLSKTHIMFIPFPAQGHMSPMMQFAKRLAWKGLRITIVLPAQIRDFMQITNPLINTECISFDFDKDDGMPYSMQAYMGVVKLKVTNKLSDLLEKQRTNGYPVNLLVVDSLYPSRVEMCHQLGVKGAPFFTHSCAVGAIYYNARLGKLKIPPEEGLTSVSLPSIPLLGRDDLPIIRTGTFPDLFEHLGNQFSDLDKADWIFFNTFDKLENEEAKWLSSQWPITSIGPLIPSMYLDKQLPNDKDNGINFYKADVGSCIKWLDAKDPGSVVYASFGSVKHNLGDDYMDEVAWGLLHSKYHFIWVVIESERTKLSSDFLAEAEAEEKGLIVSWCPQLQVLSHKSIGSFMTHCGWNSTVEALSLGVPMVALPQQFDQPANAKYIVDVWQIGVRVPIGEEGVVLRGEVANCIKDVMEGEIGDELRGNALKWKGLAVEAMEKGGSSDKNIDEFISKLVSS
modifications: Panax ginseng; 3GT4
B5: gGT29-6: glycosyltransferase protein with 446 amino acids, SEQ ID NO.: 59 (protein)
chain: MDNQKGRISIVMLPFLAHGHISPFFELAKHLSKRNCNIFLCSTPINLSSIKNRISDKDSSASIKLVELHLPSSPDLPPHYHTTNGLPSHLMVPLRNAFETAAPTFSEILKTLNPDLLIYDFNPSWAPEIASSHNIPAVYFLTTAAASSSIGLHAFKNPGEKYPFPDFYDNSNNTPEPPSADNMKLLHDFIACFERSCDIILIKSFIELEGKYIDLLSTLSDKTLVPVGPLVQDPMGHNEDPKTEQIINWLDKRAESTVVFVCFGSEYFLSNEELEEVAIGLEISMVNFIWAVRLIEGEKKGVLPEGFVQRVGDRGLVVEGWAPQARILGHSSTGGFVSHCGWSSIAESMKFGVPVIAMARHLDQPLNGKLAAEVGVGMEVVRDENGKYKREDIAGVIRKVVVEKSGEVIRRKARELSEKMKEIGEQLIDRAVEELVQICKKKKDEQ
modifications: Panax ginseng; gGT29-6
B6: gGT25-5: glycosyltransferase protein with 472 amino acids, SEQ ID NO.: 20 (protein)
chain: MKSELIFVPVPAFGHLVGMVEMAKLFISRHENLSVTVLISKFFIDTGIDNYNKSLLAKPTPRLTIINLPEIDPQKYLLKPRCAIFPSLIENQKTHVRDVMSRMTQSESTRVVGLLADILFVDIFDIADEFNVPTYVYSPAGAGFLGLAFHLQTLNDDKKQDVTEFRNSDTELLVPSFANPVPAEFLPSIFLEKDGRHDVLLSLYWRCREAKGIIVNTFEELEPYAINSLRMDSMIPPIYPVGPILNLNGEGQNSDEAAVILGWLDDQPPSSVVFLCFGSFGSFPENQVKEIAMGLERSGHRFLWSLRPCISEGETTLQLKYSNLELPAGFLDRTSCVGKVIGWAPQMAILAHEAVGGFVSHCGWNSVLESVWYGMPVATWPMYGEQQLNAFEMVKELGLAVEIEVDYRNEYNKSDFIVKADEIETKIKKLMMDGKNSKIRKKVKEMKEKSRVAMSENGSSYTSLAKLFEEIM
modifications: Panax ginseng; gGT25-5

What was measured:
Type in all cases: biochemical
[1] = Glycosyltransfering reaction with crude enzyme, substrate F2; conditions: 35° C., 12 hrs, TLC; for extension of C3 glycosyl of F2 by one more glycosyl (product Rd): crude enzymes of Example 21 (E. coli expression products); for extension of C3 of F2 by one more glycosyl (product Rd): crude enzyme: lysate supernatant of recombinant yeast
Experimental: (§1) According to the method as in Example 4, the cell lysate of recombinant yeasts expressing gGT13 and gGT30 were used to catalyze PPD and PPT.
(§2) The lysate supernatant of the recombinant yeast expressing empty vectors was used as control. The reaction was conducted under 35° C. for 12 hrs, and then stopped by adding 100 μL of butanol. The product were extracted, dried in vacuum, and dissolved in methanol.
(§3) The glycosyltransfering reactions of ginsenosides Rh2 and F2 were catalyzed by using the lysate supernatant of the recombinant yeasts expressing 3GT1, 3GT2, 3GT3 and 3GT4 as crude enzymes. The 100 μL reaction system is shown as Table 3. The reaction was conducted under 35° C. for 12 hrs, and then stopped by adding 100 μL of butanol. The product were extracted, dried in vacuum, and dissolved in methanol.

[2] = Glycosyltransfering activities on ginsengenins and saponins: glycosylation site and specificity (summary)
Experimental: More than 100 predicted cDNA sequences of glycosyltransferases were extracted from the published expression profile data of the Panax plant. 60 cDNAs with full length were cloned, expressed, and subjected to the analysis of glycosyltransfering reaction.
(§4) The lysate supernatant of the recombinant yeasts expressing the empty vector was used as control.
(§5) The reaction was conducted under 35° C. for 12 hrs, then stopped by adding 100 μL of butanol. The product were extracted, dried in vacuum, and dissolved in methanol.
as §3, with “ginsenosides” for “ginsenosides Rh2”, “ginsengenins” for “F2”, “lysis” for “lysate”, “enzymes. The lysis supernatant of recombinant E. coli expressing empty vectors was used as control.” for “enzymes.”, “hrs,” for “hrs, and”
as §2, §3

[3] = Glycosyltransfering reaction with crude enzyme, substrate Rh2; conditions: crude enzymes of Example 21 (E. coli expression products); 35° C., 12 hrs; TLC
[4] = as above; conditions: crude enzyme: lysate supernatant of recombinant yeast; 35° C., 12 hrs; TLC
Experimental: as §4, §5
The reaction products were first detected by thin layer chromatography (TLC). […]
as §2, §3

[5] = Glycosyltransfering reaction with crude enzyme, substrate PPD; conditions: UDP-glucose, 35° C., 12 hrs, TLC
Experimental: as §4, §5
(§6) The reaction products were first detected by thin layer chromatography (TLC).
(§7) The converted products of gGT25 were further identified by HPLC (FIG. 10 and FIG. 11). The retention time of peak 2 was identical to that of the CK standard sample; the retention time of peak 3 was identical to that of PPD. […] Peak 1, also present in the profile of the negative control, indicated its irrelevance to the conversion of PPD. 3 peaks were shown in FIG. 11, the retention time of peak 1 was identical to that of F1 standard sample and peak 3 was identical to that of PPT. […] Peak 2, also present in the profile of the negative control, indicated its irrelevance to the conversion of PPT.
as §1
The cell lysis supernatant of the recombinant E. coli was used as crude enzyme to conduct the glycosyltransfering reaction, and the reaction condition was identical to that of Example 4.
The reaction was conducted under 35° C. for 12 hrs. 100 μL of butanol was added to stop the reaction and the products were extracted. Upon vacuum drying, the product was dissolved by methanol. TLC was first used to detect the reaction product.
as §3, with “ginsenosides” for “ginsenosides Rh2”, “ginsengenins” for “F2”, “lysis” for “lysate”, “enzymes. The lysis supernatant of recombinant E. coli expressing empty vectors was used as control.” for “enzymes.”, “hrs,” for “hrs, and”
The reaction was conducted under 35° C. for 12 hrs, and then stopped by adding 100 μL of butanol. The product were extracted, dried in vacuum, and dissolved in methanol. The reaction products were first detected by thin layer chromatography (TLC) (FIG. 35).

[6] = Glycosyltransfering reaction with crude enzyme, substrate CK; conditions: 35° C., 12 hrs, TLC
Experimental: as §1
as §3, with “ginsenosides” for “ginsenosides Rh2”, “ginsengenins” for “F2”, “lysis” for “lysate”, “enzymes. The lysis supernatant of recombinant E. coli expressing empty vectors was used as control.” for “enzymes.”, “hrs,” for “hrs, and”

[7] = Glycosyltransfering reaction with crude enzyme, substrate 25-OH-PPD; conditions: 35° C., 12 hrs, TLC
Experimental: as §3, with “ginsenosides” for “ginsenosides Rh2”, “ginsengenins” for “F2”, “lysis” for “lysate”, “enzymes. The lysis supernatant of recombinant E. coli expressing empty vectors was used as control.” for “enzymes.”, “hrs,” for “hrs, and”

[8] = Glycosyltransfering reaction with crude enzyme, substrate PPT; conditions: crude enzyme: lysate supernatant of recombinant yeast; UDP-glucose, 35° C., 12 hrs; TLC
Experimental: as §4, §5, §6, §7, §1
as §3, with “ginsenosides” for “ginsenosides Rh2”, “ginsengenins” for “F2”, “lysis” for “lysate”, “enzymes. The lysis supernatant of recombinant E. coli expressing empty vectors was used as control.” for “enzymes.”, “hrs,” for “hrs, and”

[9] = Glycosyltransfering reaction with crude enzyme, substrate DM; conditions: crude enzyme: lysate supernatant of recombinant yeast; UDP-glucose, 35° C., 12 hrs; TLC
Experimental: as §4, §5, §6
as §3, with “ginsenosides” for “ginsenosides Rh2”, “ginsengenins” for “F2”, “lysis” for “lysate”, “enzymes. The lysis supernatant of recombinant E. coli expressing empty vectors was used as control.” for “enzymes.”, “hrs,” for “hrs, and”

[10] = Table 2, tetracyclic triterpenoid substrates
[11] = crude enzyme: lysate supernatant of recombinant E. coli, UDP-glucose

Molecule	extension of C3 glycosyl of F2 by one more glycosyl (product Rd) [1]	glycosylation site: The first glycosyl at C-3 [2, 10]	extension of C3 glycosyl of Rh2 by one more glycosyl (product Rg3) [3]	extension of C3 of Rh2 by one more glycosyl (product Rg3) [4]	extension of C3 of F2 by one more glycosyl (product Rd) [1]	other results
B1	could be extended by one more glycosyl	✓	could not be catalyzed	–	–	–
B2	–	✓	–	could be extended by one more glycosyl	could be extended by one more glycosyl	–
B3	–	✓	–	could be extended by one more glycosyl	could be extended by one more glycosyl	–
B4	–	–	–	–	–	substrate that could be catalyzed: PPD ([5]; crude enzyme: lysate supernatant of recombinant E. coli): ✓; glycosylation of C3-OH of CK (product F2) ([6]; crude enzyme of Example 11): further glycosylating its C3-OH; substrate that could be catalyzed: CK [6, 11]: ✓; glycosylation of C3-OH of 25-OH-PPD (product 3-O-β-(D-glucopyranosyl)-25-OH-PPD) ([7]; crude enzyme of Example 11): could be glycosylated; substrate that could be catalyzed: 25-OH-PPD [7, 11]: ✓; glycosylation site: C-3 [2, 10]: ✓; substrate spectrum / specificity ([2]; comparison of 3GT1, 3GT2, 3GT3 and 3GT4, Table 6): best specificity
B5	could be extended by one more glycosyl	✓	could be extended by one more glycosyl	–	–	–
B6	–	–	–	–	–	glycosylation of C20-OH of PPD (product CK) ([5]; crude enzyme: lysate supernatant of recombinant yeast): could not glycosylate the C20-OH; glycosylation of C6-OH of PPT (product Rg1 or Rh1) [8]: can only glycosylate C6-OH; glycosylation of C20-OH of PPT (product F1) [8]: could not glycosylate the C20-OH; glycosylation of C20-OH of DM (product 20-O-β-(D-glucopyranosyl)-dammarendiol II) [9]: could not glycosylate the C20-OH; glycosylation site: C6 [2, 10]: ✓
